Source: patent KR20190053464A (dated 2019)

Target: 인간 IL-17A (human IL-17A, R&D system) (human, UniProt Q16552 20-155, limits assumed)
Assay: cell-based or functional assay

Sequence of 인간 IL-17A (human IL-17A, R&D system) (Q16552 20-155 limits assumed): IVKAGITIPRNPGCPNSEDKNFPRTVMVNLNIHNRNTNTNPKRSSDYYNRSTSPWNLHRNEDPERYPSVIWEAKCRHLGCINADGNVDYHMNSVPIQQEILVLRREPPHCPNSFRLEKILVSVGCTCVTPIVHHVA

| Molecule | IC50 of inhibition of IL-17A-dependent IL-6 secretion, HeLa cells [nM] | fold better IC50 than secukinumab in-house, HeLa IL-6 assay [fold] |
| --- | --- | --- |
| 세쿠키누맙 (secukinumab), made in-house (antibody) | 4.16 | – |
| 7H3C11FW (antibody, V domains shown) VH: QVQLVESGGGVVQPGRSLRLSCAASGFAFGSYTMHWVRQAPGKGLEWVTLISFDGRSKLYGDSVKGRFTISRDNSKNSLYLQMNSLRAEDTAVYYCARGSVRGEAAFDLWGQGTLVTVSS VL: SYELTQPPSVSVSPGQTASITCSGDNLRTKYVSWYQQKPGQSPVLVIYQDTRRPSGIPERFSGSNSGNTATLTISGTQAMDEADYYCMTWDVDTTSMIFGGGTKLTVL | 2.88 | ~1.4 |
